Test [1] deals with BG505 SOSIP.664 Env trimer (UniProt Q2N0S6). The test can be described thus: ELISA. Conditions: parent: 1.
Test [2] has as its target BG505 SOSIP.664 Env trimer (HIV-1 (BG505)) (UniProt Q2N0S6).
For test [3] the target is unchanged. The test can be described thus: ELISA; direct ELISA: plates coated with soluble BG505 SOSIP trimer (0.2 or 2 ng/μl) in PBS pH 7.4; serially diluted Fab mutants from cell culture supernatant, room temperature 1 hour; goat anti-human lambda HRP; compared with wild-type Fab on the same plate.

Take Fab NC-Cow1 D:D5A: the ratio to parent in test [1] was 1.9. The same measure, in the same setting: next, Fab NC-Cow1 D:D26A: 0.8; Fab NC-Cow1 D:E1A: 1.2; Fab NC-Cow1 D:G29A: 64.2. On the same count and under the same terms, the result for Fab NC-Cow1 D:H42A reads 1; that for Fab NC-Cow1 D:M24A, 73.8. On to Fab NC-Cow1 D:Q14A, for which the ratio to parent in test [1] turned out to be 0.9. On the same count and under the same terms, next, Fab NC-Cow1 D:Q15A: 1.4.

For the substance Fab NC-Cow1 D:Q34A, the ratio to parent in test [1] was 1.3. Still for that read-out and setting: the result for Fab NC-Cow1 D:R43A reads 0.8; that for Fab NC-Cow1 D:S19A, 1. Turning to Fab NC-Cow1 D:T7A, the ratio to parent in test [1] was 1.3. The same measure, in the same setting: the result for Fab NC-Cow1 D:Y40A reads 1; that for Fab NC-Cow1 H:N100A, 1.6. The substance NC-Cow1 Fab ArgD11 alanine mutant gave a neutralization on BG505 pseudovirus; fold reduction of potency against wild-type Fab in test [2] above 9 fold. In addition, the fold reduction of binding in ELISA against wild-type Fab in test [3] was above 9 fold. For NC-Cow1 Fab ArgD27 alanine mutant, the neutralization on BG505 pseudovirus; fold reduction of potency against wild-type Fab in test [2] is above 9 fold. The substance further displayed a fold reduction of binding in ELISA against wild-type Fab in test [3] above 9 fold.

NC-Cow1 Fab ArgD33 alanine mutant: the neutralization on BG505 pseudovirus; fold reduction of potency against wild-type Fab in test [2] was above 9 fold. In test [3], this substance displayed a fold reduction of binding in ELISA against wild-type Fab above 9 fold. On to NC-Cow1 Fab ArgD43 alanine mutant, for which the neutralization on BG505 pseudovirus; fold reduction of potency against wild-type Fab in test [2] was above 3 fold. Still for that read-out and setting: the result for NC-Cow1 Fab AsnH100 alanine mutant reads above 3 fold; that for NC-Cow1 Fab GluD1 alanine mutant, above 3 fold; that for NC-Cow1 Fab LysH100b alanine mutant, above 3 fold. In the case of NC-Cow1 Fab TyrD6 alanine mutant, the neutralization on BG505 pseudovirus; fold reduction of potency against wild-type Fab in test [2] was above 9 fold. In test [3], this substance yielded a fold reduction of binding in ELISA against wild-type Fab above 9 fold. As for NC-Cow1 Fab TyrD31 alanine mutant, in test [2], the neutralization on BG505 pseudovirus; fold reduction of potency against wild-type Fab is above 9 fold. Besides, in test [3], the fold reduction of binding in ELISA against wild-type Fab was above 9 fold.

Regarding NC-Cow1 Fab TyrD40 alanine mutant, the neutralization on BG505 pseudovirus; fold reduction of potency against wild-type Fab in test [2] is above 3 fold.

Values taken from PMC7253169.
